Assay results from the supplement of paper PMC6379048.

How the values were obtained:
Test in all cases: Kd (EC50 corrected by depletion factor)
[1] = target: P4HB (UniProt P07237)
Method in brief: (§1)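 To obtain EC50, data were fitted with a four-parameter log-logistic model; Kd was then EC50 multiplied by a protein-dependent depletion factor. Beforehand, free RNA oligos (0 nM to 30 μM) were pre-incubated with HEK293-FT lysate (2.5 mg protein/well) for 1 h at 4°C. The lysate then spent 30 min at 4°C with the same 5′-amino-C6 oligos coupled to NHS-Sepharose beads, and bound proteins were quantified by label-free LC-MS/MS, normalised to the control.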

[2] = target: T1, TIA1 (UniProt P31483)
T1 sequence: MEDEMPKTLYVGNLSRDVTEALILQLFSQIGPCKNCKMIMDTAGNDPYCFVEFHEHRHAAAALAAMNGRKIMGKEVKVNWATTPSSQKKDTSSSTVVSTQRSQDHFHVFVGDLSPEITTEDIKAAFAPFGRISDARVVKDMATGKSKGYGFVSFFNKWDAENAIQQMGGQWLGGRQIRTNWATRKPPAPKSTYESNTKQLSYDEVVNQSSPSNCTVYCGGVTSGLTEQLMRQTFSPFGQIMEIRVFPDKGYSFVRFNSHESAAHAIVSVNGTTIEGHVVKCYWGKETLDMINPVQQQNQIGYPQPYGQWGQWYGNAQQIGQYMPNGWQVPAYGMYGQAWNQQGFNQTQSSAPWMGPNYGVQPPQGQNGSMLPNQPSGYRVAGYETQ
Method in brief: as §1

[3] = target: P4HA2 (UniProt O15460)
Sequence of P4HA2 (O15460 whole entry): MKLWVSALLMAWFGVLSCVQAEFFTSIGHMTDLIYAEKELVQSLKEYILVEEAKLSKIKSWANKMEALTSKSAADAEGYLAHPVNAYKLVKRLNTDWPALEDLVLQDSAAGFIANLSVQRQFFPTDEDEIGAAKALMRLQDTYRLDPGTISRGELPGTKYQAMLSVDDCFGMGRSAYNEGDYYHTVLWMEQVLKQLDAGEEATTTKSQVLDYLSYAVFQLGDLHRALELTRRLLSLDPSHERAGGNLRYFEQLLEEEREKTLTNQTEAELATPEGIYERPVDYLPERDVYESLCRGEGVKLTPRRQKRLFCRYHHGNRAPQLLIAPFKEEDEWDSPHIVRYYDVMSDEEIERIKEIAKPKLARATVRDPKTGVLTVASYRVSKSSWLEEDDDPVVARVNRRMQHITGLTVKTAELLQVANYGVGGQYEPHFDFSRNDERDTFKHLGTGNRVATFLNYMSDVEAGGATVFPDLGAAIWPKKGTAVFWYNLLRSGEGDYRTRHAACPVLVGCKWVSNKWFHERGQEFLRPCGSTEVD
Method in brief: as §1

[4] = target: T2, PABPN1 (UniProt Q86U42)
T2 sequence: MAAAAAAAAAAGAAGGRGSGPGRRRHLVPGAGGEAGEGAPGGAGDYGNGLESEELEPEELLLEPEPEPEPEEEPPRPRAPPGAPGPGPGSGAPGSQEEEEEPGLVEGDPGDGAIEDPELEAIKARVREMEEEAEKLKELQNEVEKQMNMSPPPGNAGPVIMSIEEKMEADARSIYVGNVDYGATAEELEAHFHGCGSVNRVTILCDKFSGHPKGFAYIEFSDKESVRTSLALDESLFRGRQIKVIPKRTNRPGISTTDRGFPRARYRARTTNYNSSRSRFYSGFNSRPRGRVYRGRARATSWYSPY
Method in brief: as §1

[5] = target: RPS5 (UniProt P46782)
Method in brief: as §1

[6] = target: RPSA (UniProt P08865)
Method in brief: as §1

[7] = target: MRPL53 (UniProt Q96EL3)
Method in brief: as §1

[8] = target: SRSF6 (UniProt Q13247)
Sequence of SRSF6 (Q13247 whole entry, looked up): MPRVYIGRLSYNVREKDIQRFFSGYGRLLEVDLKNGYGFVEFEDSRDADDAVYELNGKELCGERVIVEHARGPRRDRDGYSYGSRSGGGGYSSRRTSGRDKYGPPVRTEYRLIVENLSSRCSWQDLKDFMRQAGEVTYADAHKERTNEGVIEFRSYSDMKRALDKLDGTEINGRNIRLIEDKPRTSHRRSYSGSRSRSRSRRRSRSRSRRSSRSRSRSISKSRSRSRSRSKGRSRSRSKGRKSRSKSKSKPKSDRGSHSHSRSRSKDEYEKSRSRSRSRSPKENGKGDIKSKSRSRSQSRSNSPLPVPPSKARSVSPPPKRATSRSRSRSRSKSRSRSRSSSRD
Method in brief: as §1

[9] = target: RPS3A (UniProt P61247)
Method in brief: as §1

[10] = target: IGF2BP2 (UniProt Q9Y6M1)
Sequence of IGF2BP2 (Q9Y6M1 whole entry): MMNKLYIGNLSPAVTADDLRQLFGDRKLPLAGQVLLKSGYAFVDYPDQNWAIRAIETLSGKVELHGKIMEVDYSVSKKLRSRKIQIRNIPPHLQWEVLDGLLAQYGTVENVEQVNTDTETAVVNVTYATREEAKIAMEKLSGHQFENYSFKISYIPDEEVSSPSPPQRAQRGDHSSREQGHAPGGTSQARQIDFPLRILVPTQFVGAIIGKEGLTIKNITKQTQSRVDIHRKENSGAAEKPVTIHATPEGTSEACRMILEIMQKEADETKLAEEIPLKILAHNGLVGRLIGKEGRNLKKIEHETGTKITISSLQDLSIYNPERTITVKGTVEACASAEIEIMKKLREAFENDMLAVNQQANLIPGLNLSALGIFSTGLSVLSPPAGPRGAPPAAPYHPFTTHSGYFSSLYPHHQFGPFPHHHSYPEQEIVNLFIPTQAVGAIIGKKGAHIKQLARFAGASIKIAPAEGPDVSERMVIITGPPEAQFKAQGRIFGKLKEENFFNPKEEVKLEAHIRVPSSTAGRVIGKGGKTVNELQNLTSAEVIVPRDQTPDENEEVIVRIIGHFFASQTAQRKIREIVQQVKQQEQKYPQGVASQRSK
Method in brief: as §1

[11] = target: HNRNPA1 (UniProt P09651)
Sequence of HNRNPA1 (P09651 whole entry): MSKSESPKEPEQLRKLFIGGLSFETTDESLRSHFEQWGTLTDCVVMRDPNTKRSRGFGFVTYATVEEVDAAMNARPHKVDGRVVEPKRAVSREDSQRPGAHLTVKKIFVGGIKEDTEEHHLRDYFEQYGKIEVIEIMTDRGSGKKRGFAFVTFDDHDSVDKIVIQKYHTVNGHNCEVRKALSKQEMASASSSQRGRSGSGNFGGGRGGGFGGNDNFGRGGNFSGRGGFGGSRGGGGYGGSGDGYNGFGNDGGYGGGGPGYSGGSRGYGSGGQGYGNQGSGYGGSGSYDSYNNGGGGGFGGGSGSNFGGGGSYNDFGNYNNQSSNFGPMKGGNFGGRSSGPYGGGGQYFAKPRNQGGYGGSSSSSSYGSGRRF
Method in brief: as §1

[12] = target: T3, CDKN2AIP (UniProt Q9NXV6)
T3 sequence: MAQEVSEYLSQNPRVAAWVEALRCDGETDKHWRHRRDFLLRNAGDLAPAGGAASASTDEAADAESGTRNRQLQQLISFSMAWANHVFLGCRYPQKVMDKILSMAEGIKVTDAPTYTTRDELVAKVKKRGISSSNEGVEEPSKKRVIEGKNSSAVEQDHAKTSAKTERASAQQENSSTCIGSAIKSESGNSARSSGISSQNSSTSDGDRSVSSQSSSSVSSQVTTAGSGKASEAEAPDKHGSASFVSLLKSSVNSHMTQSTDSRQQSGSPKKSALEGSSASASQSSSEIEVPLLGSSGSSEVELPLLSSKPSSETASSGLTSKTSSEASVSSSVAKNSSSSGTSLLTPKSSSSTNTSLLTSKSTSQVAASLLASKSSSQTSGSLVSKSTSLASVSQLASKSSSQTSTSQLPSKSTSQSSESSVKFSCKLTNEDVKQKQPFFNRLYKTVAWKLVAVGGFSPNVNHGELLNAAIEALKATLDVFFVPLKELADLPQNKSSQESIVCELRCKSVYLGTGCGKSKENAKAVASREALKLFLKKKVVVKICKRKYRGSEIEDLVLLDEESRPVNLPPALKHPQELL
Method in brief: as §1

[13] = target: MRPS22 (UniProt P82650)
Method in brief: as §1

[14] = target: T4, FASTKD2 (UniProt Q9NYY8)
T4 sequence: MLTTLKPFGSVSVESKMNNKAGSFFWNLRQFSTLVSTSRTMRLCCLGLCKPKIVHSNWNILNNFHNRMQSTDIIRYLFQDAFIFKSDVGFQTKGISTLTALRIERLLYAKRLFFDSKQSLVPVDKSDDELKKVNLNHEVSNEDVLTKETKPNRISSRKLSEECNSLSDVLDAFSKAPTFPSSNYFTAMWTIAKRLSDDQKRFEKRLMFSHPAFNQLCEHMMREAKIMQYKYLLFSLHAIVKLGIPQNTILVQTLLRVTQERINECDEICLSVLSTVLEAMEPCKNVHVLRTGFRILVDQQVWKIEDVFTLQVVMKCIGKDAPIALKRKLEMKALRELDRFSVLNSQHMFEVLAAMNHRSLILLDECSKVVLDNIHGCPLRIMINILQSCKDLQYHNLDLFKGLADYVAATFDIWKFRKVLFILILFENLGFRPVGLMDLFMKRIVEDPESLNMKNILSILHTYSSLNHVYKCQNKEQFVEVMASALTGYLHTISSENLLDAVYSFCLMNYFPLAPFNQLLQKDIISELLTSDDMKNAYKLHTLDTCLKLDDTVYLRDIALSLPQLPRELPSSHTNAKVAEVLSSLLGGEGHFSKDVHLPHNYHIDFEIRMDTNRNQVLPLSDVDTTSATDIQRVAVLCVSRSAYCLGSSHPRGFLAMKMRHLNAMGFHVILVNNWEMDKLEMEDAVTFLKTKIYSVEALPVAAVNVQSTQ
Method in brief: as §1

Sequence of P4HB (P07237 whole entry, looked up): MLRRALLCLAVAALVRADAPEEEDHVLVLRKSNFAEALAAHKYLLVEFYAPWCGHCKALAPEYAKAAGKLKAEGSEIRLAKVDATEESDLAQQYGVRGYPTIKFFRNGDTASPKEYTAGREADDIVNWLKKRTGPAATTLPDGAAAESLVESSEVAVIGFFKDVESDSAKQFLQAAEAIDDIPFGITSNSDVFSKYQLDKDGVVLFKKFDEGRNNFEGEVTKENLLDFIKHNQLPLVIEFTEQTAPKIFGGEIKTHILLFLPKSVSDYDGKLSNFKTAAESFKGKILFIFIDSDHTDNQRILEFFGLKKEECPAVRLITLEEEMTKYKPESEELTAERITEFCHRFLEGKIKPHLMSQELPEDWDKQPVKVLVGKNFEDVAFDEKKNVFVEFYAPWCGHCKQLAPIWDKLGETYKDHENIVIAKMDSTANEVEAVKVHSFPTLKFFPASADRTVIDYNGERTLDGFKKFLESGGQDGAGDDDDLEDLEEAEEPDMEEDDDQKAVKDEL

Work on AAUAAA yielded a Kd [1] of 24.8 nM, a Kd [2] of 158 nM and a Kd [3] of 37.5 nM. For the same sequence, the Kd [4] was 368 nM.

In the case of CUGUCCU, the Kd [5] is reported as 146 nM, the Kd [6] is reported as 187 nM and the Kd [7] is reported as 100 nM. The Kd [8] was 287 nM, the Kd [9] was 64.2 nM and the Kd [10] was 924 nM.

With UAUUUAU the Kd [11] was 1960 nM, the Kd [12] was 368 nM and the Kd [13] was 57.8 nM. It also gave a Kd [14] of 3890 nM.
